According to publication PMC9050902 (Journal of molecular biology, 2022):

Target: LC8 (as used with syn-4mer) ( (S. cerevisiae or D. …, UniProt Q24117 1-89))
Assay: ITC

LC8 (as used with syn-4mer) (, sequence (Q24117 whole entry): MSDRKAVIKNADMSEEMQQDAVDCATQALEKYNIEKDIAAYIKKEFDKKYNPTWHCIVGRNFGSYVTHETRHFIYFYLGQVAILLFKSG

Kd: ~40 nM
B1: synthetic four-site IDP (syn-4mer) (designed binder)
chain: GSYGSRKAIDAATQTEPKETRKAIDAATQTEPKETRKAIDAATQTEPKETRKAIDAATQTEGSYGS
